These results are taken from article PMC2698432.

Data set [1] addresses T1, SarZ (Staphylococcus aureus, UniProt Q5HDG9 1-148).
T1 sequence: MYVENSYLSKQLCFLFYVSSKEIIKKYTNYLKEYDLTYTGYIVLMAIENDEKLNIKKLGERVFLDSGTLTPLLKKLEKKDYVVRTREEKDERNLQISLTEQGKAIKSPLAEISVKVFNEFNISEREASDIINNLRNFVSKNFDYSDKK
Put plainly: EMSA.

Data set [2] has as its target SarZ C13S (Staphylococcus aureus, UniProt Q5HDG9 1-148, C13S). The data set is described as follows: EMSA.

B1: ohr promoter fragment (ohr1/ohr2) (dsDNA)
DNA 1: TTTTCGAATGGGTAAAGCATAAATGTATTTTAAATTAGGAGGTTATAAGT
DNA 2: ACTTATAACCTCCTAATTTAAAATACATTTATGCTTTACCCATTCGAAAA
Take B1: the binding result in data set [1] and in data set [2] was “binds” in each case.
